Entries after “also recorded” stand apart in the source; their conditions may differ. Where no end group is shown, it is not given here. [ ]: non-standard residue; d: D form.
What was measured:
Type in all cases: cell-based
[1] = molecular target: T1, murine TLR2 (HEK-Blue™-mTLR2 cells) (Mus musculus, UniProt Q9QUN7); test: TLR2 agonism in HEK-Blue-mTLR2 cells (SEAP reporter); conditions: for SEAP production / TLR2 agonism in HEK-Blue™-mTLR2: Example 2, FIG. 4A-4C, 10-12 h incubation, absorbance 635 nm; for SEAP production / TLR2 agonism in HEK-Blue™-mTLR2 / TLR2 agonism for mTLR2: result in words; for TLR2 agonism for mTLR2: Example 8, FIG. 6A, dilution series 10^−6 M to 10^−11 M
T1 construct: host or cells: HEK-Blue-mTLR2 (HEK cells co-transfected with murine TLR2 and the SEAP reporter)
T1 sequence (Q9QUN7 25-784): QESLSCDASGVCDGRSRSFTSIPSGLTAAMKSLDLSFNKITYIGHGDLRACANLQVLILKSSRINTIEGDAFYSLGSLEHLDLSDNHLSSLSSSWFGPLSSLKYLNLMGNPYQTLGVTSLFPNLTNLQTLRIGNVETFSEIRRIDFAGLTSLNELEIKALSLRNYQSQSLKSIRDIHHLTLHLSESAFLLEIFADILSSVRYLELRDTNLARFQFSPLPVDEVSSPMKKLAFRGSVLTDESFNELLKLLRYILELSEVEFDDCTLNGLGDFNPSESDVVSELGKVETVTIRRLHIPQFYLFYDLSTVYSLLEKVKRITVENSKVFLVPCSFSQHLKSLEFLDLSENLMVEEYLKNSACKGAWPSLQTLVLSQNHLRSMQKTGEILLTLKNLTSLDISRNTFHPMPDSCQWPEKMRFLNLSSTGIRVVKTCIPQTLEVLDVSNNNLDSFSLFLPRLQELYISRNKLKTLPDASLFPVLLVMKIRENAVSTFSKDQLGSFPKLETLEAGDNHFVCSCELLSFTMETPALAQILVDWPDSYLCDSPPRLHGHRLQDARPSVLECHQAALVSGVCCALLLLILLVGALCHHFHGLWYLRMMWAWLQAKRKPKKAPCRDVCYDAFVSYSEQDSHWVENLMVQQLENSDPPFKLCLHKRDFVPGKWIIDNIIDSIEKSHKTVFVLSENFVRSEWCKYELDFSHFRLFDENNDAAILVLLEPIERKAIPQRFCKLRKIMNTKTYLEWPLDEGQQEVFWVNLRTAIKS
Procedure: (§1) HEK-Blue™ Detection medium, HEK-Blue™-hTLR2 and HEK-Blue™-mTLR2 were purchased from Invivogen. These HEK-Blue cells were produced by co-transfection of both reporter gene SEAP (secreted embryonic alkaline phosphatase) and either human or murine TLR2, respectively. The SEAP reporter gene is under the control of the IFN-B minimal promoter fused to five AP-1 and five NFkB binding sites. Cells were cultured according to manufacturer's instructions.
(§2) On the day of the assay, TLR agonists 510, 520, 530, 540, 550 or PBS (negative control) were added at the indicated concentrations in 20 μl volume of endotoxin free water in a 96-well plate. HEK-Blue™-hTLR2 or […] were resuspended at ˜2.78×10^5 cells/ml in HEK-Blue™ Detection medium and 180 μl of the cell suspension added to each well (˜5×10^4 cells). Cells were incubated for 10-12 h at 37° C. in 5% CO2. SEAP expression was quantified using an EnSpire plate reader (PerkinElmer) at […]. Data presented as mean+/−SD ABS or mABS (635 nm) values for triplicate wells following background subtraction.
(§3) The TLR2 agonism of the agonists in Table 4 were investigated in HEK-Blue™-mTLR2 (FIG. 6A) and HEK-Blue™-hTLR2 (FIG. 6B) cells by following a procedure analogous to that described in section 2.1 of Example 2 across a 6-log10 dilution series (10^−6 M to 10^−11 M). (R/S)-Pam-1-Cys-NH2 was tested only at 10^−6 and 10^−9 M. Data presented as mean+/−SD absorbance (635 nm) values for triplicate wells following background subtraction, with dotted lines representing absorbance in wells treated with media only.

[2] = molecular target: T2, human TLR2 (HEK-Blue™-hTLR2 cells) (Homo sapiens, UniProt O60603); test: TLR2 agonism in HEK-Blue-hTLR2 cells (SEAP reporter); conditions: for SEAP production / TLR2 agonism in HEK-Blue™-hTLR2: Example 2, FIG. 4A-4C, 10-12 h incubation, absorbance 635 nm
T2 construct: host or cells: HEK-Blue-hTLR2 (HEK cells co-transfected with human TLR2 and the SEAP reporter)
T2 sequence (O60603 21-784): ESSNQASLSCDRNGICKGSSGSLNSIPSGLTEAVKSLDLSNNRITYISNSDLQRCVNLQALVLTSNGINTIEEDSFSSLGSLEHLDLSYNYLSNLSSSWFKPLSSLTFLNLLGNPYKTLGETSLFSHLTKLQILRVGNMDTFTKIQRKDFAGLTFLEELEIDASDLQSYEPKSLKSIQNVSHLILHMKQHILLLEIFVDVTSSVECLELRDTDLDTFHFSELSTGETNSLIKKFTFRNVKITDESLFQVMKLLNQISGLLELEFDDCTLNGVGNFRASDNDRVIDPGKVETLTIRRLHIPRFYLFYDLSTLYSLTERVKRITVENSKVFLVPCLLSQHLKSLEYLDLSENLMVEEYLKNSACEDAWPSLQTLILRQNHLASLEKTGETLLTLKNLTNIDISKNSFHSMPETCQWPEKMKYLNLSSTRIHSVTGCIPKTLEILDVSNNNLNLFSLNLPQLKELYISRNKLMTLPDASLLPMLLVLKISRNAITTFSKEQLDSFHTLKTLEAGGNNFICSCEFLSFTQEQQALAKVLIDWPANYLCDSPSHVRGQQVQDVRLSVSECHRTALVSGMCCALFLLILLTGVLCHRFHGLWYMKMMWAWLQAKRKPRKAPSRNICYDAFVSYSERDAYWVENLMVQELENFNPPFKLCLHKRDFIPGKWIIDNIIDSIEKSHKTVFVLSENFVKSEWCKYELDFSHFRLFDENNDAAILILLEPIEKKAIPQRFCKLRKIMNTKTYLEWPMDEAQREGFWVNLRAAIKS
Procedure: as §1, §2, §3

[3] = system: CD8+ T cell clones with TLR2+ HLA-A2+ lymphoblastoid B-cell lines (LCL) as antigen-presenting cells; test: Peptide processing and presentation to CD8+ T-cell clones by LCL (CD137 expression, flow cytometry); conditions: result in words
Procedure: Epstein-Barr Virus-transformed TLR2+ HLA-A2+ lymphoblastoid B-cell lines (LCL) were used as antigen-presenting cells in all peptide processing and presentation assays. LCL were incubated for 16 h in RF10+peptide/construct as indicated at desired concentrations. Untreated LCL were incubated in RF10 only. LCL/construct incubation was performed in 96 well plates (U-bottom, BD Biosciences) or in 48wp (flat bottom, BD Biosciences) depending of the nature of the assay and the numbers of LCL required per treatment. Following incubation, LCL were thoroughly washed with RPMI 1640 to remove unbound construct/peptide.
To enable flow cytometric detection, CD8+ T cell clones were pre-stained with 0.5 μM CellTrace™ Violet (“CTV”) (Life Technologies™) following manufacturer's protocols prior to seeding into APC wells. Loaded, washed LCL and CTV-stained T cell clones were seeded in 96 well plate wells (U-bottom) at a ratio of 4:1 (LCL: T cell) in duplicate (typical numbers of cells used were 1.25×10^4 cells/ml T cells and 5×10^4 cells/ml APC). Following seeding, plates were gently centrifuged (≤300×g, 3 minutes) to allow immediate interaction, and incubated for 26 hours in a standard cell culture incubator.
To detect T cell activation, samples were stained with anti-CD8:AlexaFluor700 and anti-CD137:PE antibodies (both Biolegend). […]

Substance | SEAP production / TLR2 agonism in HEK-Blue™-mTLR2 [1] | SEAP production / TLR2 agonism in HEK-Blue™-hTLR2 ([2]; result in words) | also measured
521: Pam2Cys-SKKKK conjugated to peptide NLVPMVATVK(Ac) (Pam2Cys-SKKKKNLVPMVATVK(Ac)) [compound 521, reference compound] | relative loss of agonism when compared to unconjugated Pam3Cys-SKKKK | relative loss of agonism when compared to unconjugated Pam3Cys-SKKKK | –
551: Homo-Pam2Cys(NHAc)-SKKKK conjugated to peptide NLVPMVATVK(Ac) ({homoPam2Cys(NHAc)}-SKKKKNLVPMVATVK(Ac); also: conjugated to lipopeptide, linkage not given here) [compound 551] | did not result in any loss of agonism, and homoPam2Cys(NHAc)-SKKKK-NLVPMVATVK(Ac) remained a more potent agonist than Pam3Cys-SKKKK, particularly at nM concentrations | did not result in any loss of agonism, and homoPam2Cys(NHAc)-SKKKK-NLVPMVATVK(Ac) remained a more potent agonist than Pam3Cys-SKKKK, particularly at nM concentrations | T-cell clone activation (live clonal cells positive for CD137) ([3]; NLV-bearing constructs, FIG. 4D, LCL loaded 16 h, co-culture 26 h): comparable T-cell clone activation to NLV-bearing-Pam2Cys-SKKKK (521), and superior T-cell clone activation to NLV-bearing-Pam1Cys-SKKKK (511)
(R)-Pam3Cys: enantiopure epimeric TLR agonist of Table 4 (CSKKKK) [reference compound] | – | – | NFκB production maintained at lower concentration than paired (S)-version ([1]; mTLR2, (R)- vs (S)-epimer): ≥ 10 fold; NFκB production maintained at lower concentration than paired (S)-version ([2]; hTLR2, (R)- vs (S)-epimer): ≥ 10 fold
Pam2Cys-SKKKK: known TLR2 agonist, prepared in-house; lipid/linker component Pam2Cys-SKKKK without peptide ([Pam2Cys]SKKKK) [reference compound] | most potent agonist tested | most potent agonist tested | –
552: Homo-Pam2Cys(NHAc)-SKKKK conjugated to peptide VPGVLLKEFTVSGNILTIRLTAADHR (homo-Pam2Cys(NHAc)-SKKKK conjugate) [compound 552] | – | – | T-cell clone activation (live clonal cells positive for CD137) ([3]; VPG-bearing constructs and VPG long peptide, FIG. 4E, epitope EFTVSGNIL): superior T-cell clone activation to VPG-bearing-Pam1Cys-SKKKK (512); also recorded: superior to VPG peptide alone (500)
homoPam2Cys(NH2)-SKKKK: Lipopeptide TLR2 agonist of the invention: Homo-Pam2Cys(NH2) lipid component with SKKKK linker, no epitope peptide ([homoPam2Cys(NH2)]SKKKK) | equivalent SEAP production to Pam3Cys-SKKKK; also recorded: demonstrably more potent TLR2 agonists than Pam1CYs-SKKKK; also recorded: active in both HEK-Blue™-mTLR2 and -hTLR2 to sub-nM concentrations | comparable production in HEK-Blue™-hTLR2; also recorded: demonstrably more potent TLR2 agonists than Pam1CYs-SKKKK; also recorded: active in both HEK-Blue™-mTLR2 and -hTLR2 to sub-nM concentrations | –
Pam1Cys-SKKKK: known TLR2 agonist, prepared in-house; lipid/linker component Pam1Cys-SKKKK without peptide ([Pam1Cys]SKKKK) [reference compound] | not active in HEK-Blue™-mTLR2 at sub-μM concentrations | – | –
homoPam2Cys(NHAc)-SKKKK: Lipopeptide TLR2 agonist of the invention: Homo-Pam2Cys(NHAc) lipid component with SKKKK linker, no epitope peptide ([homoPam2Cys(NHAc)]SKKKK) | equivalent SEAP production to the most potent agonist tested (Pam2Cys-SKKKK) at ≥1 nM and comparable production at sub-nM concentrations; also recorded: demonstrably more potent agonist than Pam3Cys-SKKKK or homoPam2Cys(NH2)-SKKKK; also recorded: demonstrably more potent TLR2 agonists than Pam1CYs-SKKKK; also recorded: active in both HEK-Blue™-mTLR2 and -hTLR2 to sub-nM concentrations | equivalent SEAP production to the most potent agonist tested (Pam2Cys-SKKKK) at ≥1 nM and comparable production at sub-nM concentrations; also recorded: demonstrably more potent agonist than Pam3Cys-SKKKK or homoPam2Cys(NH2)-SKKKK; also recorded: demonstrably more potent TLR2 agonists than Pam1CYs-SKKKK; also recorded: active in both HEK-Blue™-mTLR2 and -hTLR2 to sub-nM concentrations | –
Pam1Cys-SKKKK-NH2: TLR agonist of Table 4 ([Pam1Cys]SKKKK-NH2) [reference compound] | – | – | TLR2 agonism for mTLR2 [1]: no agonism at any concentration for mTLR2; TLR2 agonism for hTLR2 ([2]; Example 8, FIG. 6B, dilution series 10^−6 M to 10^−11 M, result in words): agonism for hTLR2 at 10^−6 M but not 10^−9 M
(R)-Pam2Cys-SKKKK-NH2: enantiopure epimeric TLR agonist of Table 4 ([(R)‑Pam2Cys]SKKKK-NH2; also: (R) epimer, enantiopure) [reference compound] | – | – | TLR2 agonism for mTLR2 [1]: increase in NKκB production at 10^−10 and 10^−11 M only
